The labels stand for the following.
T1: recombinant cynomolgus monkey PD-1 expressed with a C-terminal myc-myc-hexahistidine tag (cynomolgus monkey (Macaca fascicularis))
T1 construct: monomeric; also called MfPD-1-MMH
T1 chain: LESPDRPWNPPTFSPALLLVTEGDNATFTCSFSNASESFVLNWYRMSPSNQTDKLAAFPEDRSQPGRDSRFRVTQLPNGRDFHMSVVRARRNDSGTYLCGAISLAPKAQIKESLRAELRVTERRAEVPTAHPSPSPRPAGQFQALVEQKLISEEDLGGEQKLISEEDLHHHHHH

B1: H2aM7796N (antibody, mouse IgG2a, V domains shown)
VH: QVQLVESGGGVVQPGRSLRLSCAASGFTFSSYGMHWVRQAPGKGLEWVAIIWSDGDSEYNLDSVKGRFTISRDNSKNTLYLQMNSLRVEDSAVYYCARDRDLEDIWGQGTMVTVSS
VL: DIQMTQSPSSLSASVGDRVTITCRASQGIRNDLGWYQQKPGKAPKRLIYAASNLQSGVPSRFSGSGSGTEFTLTISSLQPEDFATYYCLQHNSYPLTFGGGTKVEIK
notes: Human variable regions, mouse IgG2a Fc; also called H2M7796N
B2: H4xH8992P (antibody, V domains shown)
VH: EVQLVESGGGLVQPGRSLRLSCVASGFALHDYAMHWVRQVPGKGLEWVSSISWNSGVIGYADSLKGRFTISRDNAKNSLYLQMNSLRAEDTALYYCAKGSGSYYVSWFDPWGQGTLVTVSS
VL: not shown
notes: Human IgG4 Fc with 2 or more amino acid changes (H4xH)
B3: H2aM7788N (antibody, mouse IgG2a, V domains shown)
VH: EVQLVESGGGLVQPGGSLRLSCGASGFTFRNYDMHWVRQITGKGLEWVSAIGSAGDTYYPDSVKGRFTISRENAKNSLYLQMNSLRVGDTAVYYCTRDIHCSSTRCYGMDVWGQGTTVTVSS
VL: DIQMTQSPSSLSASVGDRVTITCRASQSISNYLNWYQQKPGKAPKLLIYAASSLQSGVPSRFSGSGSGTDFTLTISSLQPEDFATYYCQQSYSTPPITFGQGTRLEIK
notes: Human variable domains, mouse IgG2a Fc; also called H2M7788N
B4: H4xH9135P2 (antibody, human IgG4, V domains shown)
VH: EVQLVESGGSVVRPGGSLRLSCVVSGFTFEDYGLSWVRQIPGKGLEWVSGISWTGGNTGYADSVKGRFTISRDNAKNSLYLQMNSLRAEDTALYHCTRDRQWLMQWYFDYWGQGTLVTVSS
VL: not shown
notes: H4xH: modified human IgG4 Fc
B5: H4xH9145P2 (antibody, human IgG4, V domains shown)
VH: QVQLVESGGGVVQPGRSLRLSCSASGFTFSAYAMHWVRQAPGKGLEWVAAISYGGSDKYYADSVKGRFTISRDNSKNTLYLQMNSLRTDDTAVYYCAKSAHWNFFFDYWGQGTLVTVSS
VL: not shown
notes: H4xH: modified human IgG4 Fc
B6: H4xH9128P2 (antibody, human IgG4, V domains shown)
VH: QVQLQESGPGLVKPSETLSLTCTVSGGSISSYHWNWIRQSPGKGLEWIGYIYYIGSTDYNPSLESRVTISVDTSKNQFSLKLSSVTAADTAVYYCARVPVGATGASDVWGQGTMVTVSS
VL: not shown
notes: H4xH: modified human IgG4 Fc
B7: H4xH9034P (antibody, V domains shown)
VH: EVQLVESGGGVVRPGGSLRLSCTASGFTFDDYGMSWVRQAPGKGLEWISGIGWTGGRSSYADSVRGRFTISRDNAKNSLYLQMNSLGAEDTALYYCARDRQWLVQWYFDYWGQGTLVTVSS
VL: not shown
notes: Human IgG4 Fc with 2 or more amino acid changes as in US20100331527 (H4xH prefix); also called H4xH9034P2
B8: H4xH8992P (antibody, human IgG4, V domains shown)
VH: B2 VH
VL: not shown
notes: H4xH: modified human IgG4 Fc
B9: H2aM7791N (antibody, mouse IgG2a, V domains shown)
VH: QMQLQQWGAGLLKPSETLSLTCVVYGGSLNGYYWSWIRQSPGKGLEWIGEIDHSGSTNYNPSLKNRVTMSVDTSKIQFSLKLTSVTVADTAVYYCAREGLLPFDYWGQGTLVTVSS
VL: EIVLTQSPGTLSLSPGERVTLSCRASQSVYSNYLAWYQQNPGQAPRLLIYAASNRATGIPDRFSGSGSGTDFTLTISRLEPEDFAVYYCHQYATSPWTFGQGTKVEIK
notes: Human variable domains, mouse IgG2a Fc; also called H2M7791N
B10: H4H7795N2 (antibody, human IgG4 S228P, kappa, V domains shown)
VH: EVQVVESGGGLVEPGRSLRLSCKASGFTFDDYAMHWVRQTPGKALEWVSGISWSGNNIGYADSVKGRFTISKDDAKNSLYLQMNSLRPEDTALYYCTKDISITGTLDAFDVWGQGTMVTVSS
VL: DIQMTQSPISVSASVGDRVTITCRASQGISNWLAWYQQKPGIAPKLLIYSASSLQSGVPSRFRGSGSGTDFTLTIGSLQPEDFATYYCQQAHSFPLTFGGGTKVEIKR
B11: H2aM7795N (antibody, mouse IgG2a, V domains shown)
VH: B10 VH with S52N
VL: DIQMTQSPISVSASVGDRVTITCRASQGISNWLAWYQQKPGIAPKLLIYSASSLQSGVPSRFRGSGSGTDFTLTIGSLQPEDFATYYCQQAHSFPLTFGGGTKVEIK
notes: Human variable domains, mouse IgG2a Fc; also called H2M7795N
B12: H4xH9120P2 (antibody, human IgG4, V domains shown)
VH: QVQLVQSGAEVKRPGASVKVSCKASGYTFTSFYMYWVRQAPGQGLEWMGIINPSDGSTSNAQKFQGRVTMTRDTSTSTVYMELSSLRSEDTAVYYCARRVAGDIFDIWGQGTMVTVSS
VL: not shown
notes: H4xH: modified human IgG4 Fc
B13: H2aM7794N (antibody, V domains shown)
VH: QLQLQESGPDLVKPSDTLSLTCTVSDDSISSTTYYWAWIRQPPGKGLEWIGSMSYNGNNYYNPSLKSRVAISAGTSQKQFSLKLTSVTAADTAVYHCARHLGYNGNWYPFDFWGQGILVTVSS
VL: not shown
notes: Human variable domains, mouse IgG2a Fc; also called H2M7794N
B14: H1M7800N (antibody, mouse IgG1, V domains shown)
VH: EVQLVESGGGLVQPGGSLRLSCAASGFTVSNNYMSWVRQAPGKGLEWVSVIYSGGFTYYTDSVKGRFTISRHNSKNTLYLQMNSLRAEDTAVYYCARYYYDTSDYWTFFDYWGQGTLVTVSS
VL: EIVMTQSPATLSVSPGERATLSCRASQSVSSNLAWYQQKPGQAPRLLIYGASTRATGIPARFSGSGSGTEFTLTISSLQSGDFAVYYCQQYNNWPLTFGGGTKVEIN
notes: Human variable domains, mouse IgG1 Fc
B15: H2aM7780N (antibody, mouse IgG2a, V domains shown)
VH: QVQLVESGGGVVQSGRSLRLSCAASGFTFSSYGMHWVRQAPGKGLEWVAVIWYDGSNIYYSDSVKGRFTISRANSKNTLYLQMNSLRAEDTAVYYCARPGHWNYFFEYWGQGTLVTVSS
VL: DIQMTQSPSSLSASVGDRVTITCRASQSINNYLNWYQQKPGKAPKLLIYTASSLQSGVPSRFSGSGSGTDFTLTISSLQPEDFATYYCQQSYSTPPLTFGQGTQLEIK
notes: also called H2M7780N
B16: H1M7789N (antibody, mouse IgG1, V domains shown)
VH: EVQLLESGGGLVQPGGSLRLSCSASGFTFSSYTMNWVRQAPGKGLEWVSGISDTGGNTYYTDSVKGRFTVSRDNSKNTLSLQMNSLRAEDTAVYYCAKDQGGSYPYYFHYWGQGSLVTVSS
VL: B15 VL with N30S, N31S, N34I, K42T, L46F, T50A, S65C, L97I, Q104R
notes: Human variable domains, mouse IgG1 Fc (H1M prefix)
B17: H4xH9037P (antibody, human IgG4, V domains shown)
VH: EVQLVESGGGLVQPGGSLRLSCAASGFTFDDYAMHWVRQAPGKGLEWVSGIGWSSGSIGYADSVKGRFTISRDNAKNSLYLQMDSLRPEDSALYYCAKAYTFMITLYFDYWGQGTLVTVSS
VL: not shown
notes: H4xH: modified human IgG4 Fc; also called H4xH9037P2
B18: H4H9019P (antibody, human IgG4, V domains shown)
VH: EVQLVESGGGVVRPGGSLRLSCAASGFTFDDYGMSWVRQVPGKGLEWVSGISWNDGKTVYAESVKGRFIISRDNAKNSLYLEMNSLRAEDTALYYCARDWQYLIERYFDYWGQGTLVTVSS
VL: not shown
notes: Fully human, human IgG4 Fc (H4H prefix)
B19: H4xH9035P (antibody, human IgG4, V domains shown)
VH: B18 VH with G10R, V40L, S49A, Y80H, E105D, Y110F
VL: not shown
notes: H4xH: modified human IgG4 Fc; also called H4xH9035P2

Where a chain is given by its changes, count along the chain named. Names and notes keep the numbering of the source.
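Wherever result is given: rates from fitting Biacore data for PD-1 binding to anti-PD-1 antibodies with a 1:1 model, KD computed as koff/kon and t½ as ln2/(60·koff).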

The first test addresses T1, recombinant cynomolgus monkey PD-1 …. The test is described as follows: SPR, mAb captured, 25C. (In general: SPR reads the build-up and loss of mass on a sensor chip optically.)
On to B1, for which the binding result is recorded as “no binding (tested: up to 200 nM)”.
Take B2: the Kd was 200 nM and the t½ is 0.3 min.

The next test deals with T2, recombinant human PD-1 expressed with a C-terminal myc-myc-hexahistidine tag (human).
T2 construct: also called hPD-1-MMH; human PD-1-MMH
The test is described as follows: SPR (Biacore), mAb captured, hPD-1-MMH injected, 25 C.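 Further: rate constants obtained by fitting sensorgrams to a 1:1 binding model, KD derived as kd/ka and half-life as ln2/(60·kd) in minutes.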
For the molecule B3, the Kd was 19.6 nM, the koff was found to be 0.000388 s⁻¹, the kon was 19700 M⁻¹ s⁻¹ and the t½ is 30 min.
For B4, in that order: 10.2 nM, 0.0012 s⁻¹, 117000 M⁻¹ s⁻¹ and 10 min.
With B5, the Kd was found to be 38.5 nM, the koff came to 0.00134 s⁻¹, the kon is 34700 M⁻¹ s⁻¹ and the t½ came to 8.6 min.
For B6, in that order: 14.5 nM, 0.000719 s⁻¹, 49500 M⁻¹ s⁻¹ and 16 min.
The corresponding values for B7 are 14.5 nM, 0.00149 s⁻¹, 102000 M⁻¹ s⁻¹ and 7.8 min.
For B8, the Kd is 141 nM and the t½ stood at 0.5 min.
For B9, the Kd turned out to be 23.4 nM, the koff stood at 0.000706 s⁻¹, the kon turned out to be 30100 M⁻¹ s⁻¹ and the t½ stood at 16 min.
For B10, in that order: 23.3 nM, 0.00148 s⁻¹, 63500 M⁻¹ s⁻¹ and 8 min.
For the molecule B11, the Kd stood at 23.5 nM, the koff amounted to 0.00115 s⁻¹, the kon is 49100 M⁻¹ s⁻¹ and the t½ was determined as 10 min.
For the molecule B12, the Kd was determined as 30.1 nM, the koff stood at 0.000998 s⁻¹, the kon worked out at 33200 M⁻¹ s⁻¹ and the t½ was 12 min.
For B13, in that order: 38 nM, 0.00212 s⁻¹, 55000 M⁻¹ s⁻¹ and 5.4 min.
On to B14, for which the Kd was determined as 161 nM, the koff is 0.00947 s⁻¹, the kon is 58800 M⁻¹ s⁻¹ and the t½ came out at 1.2 min.
For B15, in that order: 38.5 nM, 0.000359 s⁻¹, 9320 M⁻¹ s⁻¹ and 32 min.
The corresponding values for B16 are 2.1 nM, 5.31e-05 s⁻¹, 25300 M⁻¹ s⁻¹ and 218 min.
As to B17, the Kd was 10.9 nM, the koff stood at 0.000795 s⁻¹, the kon is 73200 M⁻¹ s⁻¹ and the t½ was found to be 15 min.
On to B18, for which the Kd is 39.4 nM.
For the molecule B19, the Kd worked out at 4.62 nM, the koff stood at 0.000475 s⁻¹, the kon came out at 103000 M⁻¹ s⁻¹ and the t½ was determined as 24 min.

A further test has as its target T3, recombinant human PD-1 expressed with a C-terminal myc-myc-hexahistidine tag (human).
T3 construct: monomeric; also called hPD-1-MMH; human PD-1-MMH
The experiment in a line: SPR, mAb captured, 37C.
For B1, the Kd came to 1510 nM, the koff turned out to be 0.0165 s⁻¹, the kon turned out to be 10900 M⁻¹ s⁻¹ and the t½ is 0.7 min.

For another test, the target named is T4, human PD-1 dimer (human PD-1-mFc or human PD-1-hFc) (human, UniProt Q15116 25-170).
T4 construct: also called hPD-1-mFc; hPD1-hFc
T4 sequence (Q15116 25-170 C93S): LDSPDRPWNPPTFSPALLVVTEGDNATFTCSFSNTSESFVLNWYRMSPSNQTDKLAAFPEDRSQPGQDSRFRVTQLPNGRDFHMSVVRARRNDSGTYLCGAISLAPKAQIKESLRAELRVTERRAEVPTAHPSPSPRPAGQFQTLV
The test is described as follows: SPR, mAb captured, 37C.
As to B1, the Kd came to 19.6 nM, the koff is 0.000434 s⁻¹, the kon stood at 22100 M⁻¹ s⁻¹ and the t½ is 27 min.
In the case of B2, the affinity, expressed as Kd, was 2.91 nM and the t½ was found to be 11 min.

The next test addresses T4, human PD-1 dimer (human PD-1-mFc or …). The test is described as follows: SPR, mAb captured, 25C.
B1: the Kd was 3.32 nM, the koff amounted to 8.67e-05 s⁻¹, the kon turned out to be 26100 M⁻¹ s⁻¹ and the t½ amounted to 133 min.
As to B2, the dissociation constant Kd is 0.68 nM and the t½ worked out at 72 min.

A word on the Kd: it is a measure of binding affinity in units of concentration. For orientation: t½ means how long it takes for the measured level to halve. The term koff denotes the first-order rate constant of dissociation. For orientation: kon means a measure of how fast the partners come together.

These data come from patent US20150203579A1 (Regeneron, published 2015).
